According to US12065466B2, “Methods and compositions for protein sequencing” (Quantum-Si Incorporated, priority 2020, dated 2024):

B1: PS397: ClpS protein, SEQ ID NO: 25 (protein)
chain: MSDNEVAPKRKTRVKPKLERPRLYKVILVNDDYTPRDFVVMVLKAIFRMSEEAGYRVMMTAHKLGTSVVVVCARDIAETKAKEATDLGKEAGFPLMFTTEPEE
B2: PS427: ClpS protein, SEQ ID NO: 50 (protein)
chain: MSTKEKVKERVREKEAISFNNEIIVYNDDVNTFDHVIETLIRVCNHTPEQAEQCSLIVHYNGKCTVKTGSMDKLKPQCTQLLEAGLSAEIV
B3: PS371: ClpS protein, SEQ ID NO: 4 (protein)
chain: MATETIERPRTRDPGSGLGGHWLVIVLNDDHNTFDHVAKTLARVIPGVTVDDGYRFADQIHQRGQAIVWRGPKEPAEHYWEQLQDAGLSMAPLERH
B4: PS423: ClpS protein, SEQ ID NO: 46 (protein)
chain: MAPTPAGAAVLDKQQQRRHKHASRYRVLLHNDPVNTMEYVVESLRQVVPQLSEQDAIAVMVEAHNTGVGLVIVCDIEPAEFYCEQLKTKGLTSSIEPED
B5: PS419: ClpS protein, SEQ ID NO: 42 (protein)
chain: MEKEQSLCKEKTHVELSEPKHYKVVFHNDDFTTMDFVVKVLQLVFFKSQLQAEDLTMKIHLEGSATAGIYSYDIAQSKAQKTTQMAREEGFPLRLTVEPEDN
B6: PS407: ClpS protein, SEQ ID NO: 30 (protein)
chain: MPSNKRQMCLSDIKNSFNESGIVDWHISPRLANEPSEEGDSDLAVQTVPPELKRPPLYAVVLLNDDYTPMEFVIEILQQYFAMNLDQATQVMLTVHYEGKGVAGVYPRDIAETKANQVNNYARSQGHPLLCQIEPKD
B7: PS412: ClpS protein, SEQ ID NO: 35 (protein)
chain: MATKREGSTLLEPTAAKVKPPPLYKVLLLNDDYTPMEFVVLVLKKFFGIDQERATQIMLKVHTEGVGVCGVYPRDIAHTKVEQVVDFARQHQHPLQCTMEES
B8: PS406: ClpS protein, SEQ ID NO: 29 (protein)
chain: MPDATTTPRTKTLTRTARPPLHKVILVNDDFTPREFVVRLLKAEFRTTGDEAQRIMITAHMKGSCVVAVFTREIAESKATRATETARAEGFPLLFTTEPEE
B9: PS398: ClpS protein, SEQ ID NO: 26 (protein)
chain: MPLKAQNRSIVGRRDEWPPPTTQSSSETKSESKRVSDTGADTKRKTKTVPKVEKPRLYKVILVNDDYTPREFVLVVLKAVFRMSEDQGYKVMITAHQKGSCVVAVYTRDIAETKAKEAVDLAKEIGFPLMFRTEPEE
B10: PS410: ClpS protein, SEQ ID NO: 33 (protein)
chain: MGDDDQSSREGEGDVAFQTADPELKRPSLYRVVLLNDDYTPMEFVVHILEQFFAMNREKATQVMLAVHTQGKGVCGVYTKDIAETKAALVNDYSRENQHPLLCEVEELDDESR
B11: PS411: ClpS protein, SEQ ID NO: 34 (protein)
chain: MTRPDAPEYDDDLAVEPAEPELARPPLYKVVLHNDDFTPMEFVVEVLQEFFNMDSEQAVQVMLAVHTQGKATCGIFTRDIAETKSYQVNEYARECEHPLMCDIEAAD
B12: PS424: ClpS protein, SEQ ID NO: 47 (protein)
chain: MSVETIEKRSTTRKLAPQYRVLLHNDDYNSMEYVVQVLMTSVPSITQPQAVNIMMEAHNSGLALVITCAQEHAEFYCETLKGHGLSSTIEPD
B13: PS408: ClpS protein, SEQ ID NO: 31 (protein)
chain: MTDPPSKGREDVDLATRTKPKTQRPPLYKVLLLNDDFTPMEFVVHILERLFGMTHAQAIEIMLTVHRKGVAVVGVFSHEIAETKVAQVMELARRQQHPLQCTMEKE
B14: PS415: ClpS protein, SEQ ID NO: 38 (protein)
chain: MALPETRTKIKPDVNIKEPPNYRVIYLNDDKTSMEFVIGSLMQHFSYPQQQAVEKTEEVHEHGSSTVAVLPYEMAEQKGIEVTLDARAEGFPLQVKIEPAER
B15: PS421: ClpS protein, SEQ ID NO: 44 (protein)
chain: MTTPNKRPEFEPEIGLEDEVGEPRKYKVLLHNDDYTTMDFVVQVLIEVFRKSETEATHIMLTIHEKGVGTCGIYPAEVAETKINEVHTRARREGFPLRASMEEV
B16: PS370: ClpS protein, SEQ ID NO: 3 (protein)
chain: MFNSLGTVLDPKKSKAKYPEARVIVLDDNFNTFQHVANCLLAIIPRMCEQRAWDLTIKVDKAGSAEVWRGNLEQAELYHEQLFSKGLTMAPIEKT
B17: PS418: ClpS protein, SEQ ID NO: 41 (protein)
chain: MSDHNIDHDTSVAVHLDVVVREPPMYRVVLLNDDFTPMEFVVELLMHFFRKTAEQATQIMLNIHHEGVGVCGTYPREIAETKVAQVHQHARTNGHPLKCRMEPS
B18: PS405: ClpS protein, SEQ ID NO: 28 (protein)
chain: MVSIGAATVACAEGRPIFSGYFDWLAAMPETVTVPRTRLRPKTERPKLHKVILVNDDYTPREFVVTVLKGEFHMSEDQAQRVMITAHRRGVCVVAVFTKDVAETKATRASDAGRAKGYPLQFTTEPEE
B19: PS417: ClpS protein, SEQ ID NO: 40 (protein)
chain: MSNLDTDVLIDEKVKVVTTEPEKYRVILLNDDVTPMDFVINILVSIFKHSTDTAKDLTLKIHKEGSAIVGVYTYEIAEQKGIEATNESRQHGFPLQVKIERENTL
B20: PS396: ClpS protein, SEQ ID NO: 24 (protein)
chain: MSDNDVALKPKIKSKPKLERPKLYKVILVNDDFTPREFVIAVLKMVFRMSEETGYRVMLTAHRLGTSVVVVCARDIAETKAKEAVDFGKEAGFPLMFTTEPEE
B21: PS409: ClpS protein, SEQ ID NO: 32 (protein)
chain: MPARLTDIEGEPNTDPVEDVLLADPELKKPQMYAVVMYNDDYTPMEFVVDVLQNHFKHTLDSAISIMLAIHQQGKGIAGIYPKDIAETKAQTVNRKARQAGYPLLSQIEPQG
B22: PS420: ClpS protein, SEQ ID NO: 43 (protein)
chain: MSDYSNQISQAGSGVAEDASITLPPERKVVFYNDDFTTMEFVVDVLVSIFNKSHSEAEELMQTVHQEGSSVVGVYTYDIAVSRTNLTIQAARKNGFPLRVEVE
B23: PS414: ClpS protein, SEQ ID NO: 37 (protein)
chain: MQAAGNEPPDPQNPGDVGNGGDGGNQDGSNTGVVVKTRTRTRKPAMYKVLMLNDDYTPMEFVVHVLERFFQKNREEATRIMLHVHRRGVGVCGVYTYEVAETKVTQVMDLARQNQHPLQCTIEKE
B24: PS369: ClpS protein, SEQ ID NO: 2 (protein)
chain: MTSTLRARPARDTDLQHRPYPHYRIIVLDDDVNTFQHVVNCLVTFLPGMTRDQAWAMAQQVDGEGSAVVWTGPQEQAELYHVQLGNHGLTMAPLEPV
B25: PS426: ClpS protein, SEQ ID NO: 49 (protein)
chain: MSIIEKTQENVAILEKVSINHEIILYNDDVNTFDHVIETLIRVCNHEELQAEQCAILVHYTGKCAVKTGSFDELQPLCLALLDAGLSAEIT
B26: PS425: ClpS protein, SEQ ID NO: 48 (protein)
chain: MTHYFSNILRDQESPKINPKELEQIDVLEEKEHQIILYNDDVNTFEHVIDCLVKICEHNYLQAEQCAYIVHHSGKCSVKTGSLDELVPKCNALLEEGLSAEVV
B27: PS422: ClpS protein, SEQ ID NO: 45 (protein)
chain: MTQIKPQTIPDTDVISQTQSDWQMPDLYAVIMHNDDYTTMDFVVFLLNAVFDKPIEQAYQLMMQIHQTGRAVVAILPYEIAEMKVDEATSLAEQEQFPLFISIEQA
B28: PS413: ClpS protein, SEQ ID NO: 36 (protein)
chain: MMKQCGSYFLIKAVQDFKPLSKHRSDTDVITETKIQVKQPKLYTVIMYNDNYTTMDFVVYVLVEIFQHSIDKAYQLMMQIHESGQAAVALLPYDLAEMKVDEVTALAEQESYPLLTTIEPA
B29: PS416: ClpS protein, SEQ ID NO: 39 (protein)
chain: MTSQTDTLVKPNIQPPSLFKVIYINDSVTTMEFVVESLMSVFNHSADEATRLTQLVHEEGAAVVAILPYELAEQKGMEVTLLARNNGFPLAIRLEPAV
B30: PS404: ClpS protein, SEQ ID NO: 27 (protein)
chain: MPVSVTAPQTKTKTKPKVERPKLYKVILVNDDFTPREFVVRVLKAEFRMSEDQAAKVMMTAHQRGVCVVAVFTRDVAETKATRATDAGRAKGYPLLFTTEPEE

System: amino acid at a terminal position of a polypeptide
Assay: Amino acid binding preference of recognition proteins (Tables 1 and 2)
Conditions: Table 1, ClpS proteins; amino acid identity at a terminal position of a polypeptide; inferred from literature and/or demonstrated by the inventors
From the text: It should be appreciated that these sequences and other examples described herein are meant to be non-limiting, and recognition molecules in accordance with the application can include any homologs, variants thereof, or fragments thereof minimally containing domains or subdomains responsible for peptide recognition.

Binding Pref.	Molecule
F, Y, W	B1
F, W	B2
F, Y, W, L	B3
F, Y, W	B4
F, Y, W, L	B5
F, Y, W, L	B6
F, Y, W, L	B7
F, Y, W	B8
F, W	B9
F, W, L	B10
F, Y, W, L	B11
F, Y, W	B12
F, Y, W, L	B13
F, Y, W	B14
F, Y, W, L	B15
F, L	B16
F, Y, W, L	B17
F, Y, W	B18
F, Y, W	B19
F, W	B20
F, Y, W, L	B21
F, Y, W, L	B22
F, Y, W, L	B23
F, Y, W, L	B24
F, Y, W, L	B25
F, Y, W, L	B26
F, Y, W, L	B27
F, Y, W, L	B28
F, Y, W, L	B29
F, Y, W	B30
